Assay results taken from article PMC8177701 (Science Advances, 2021).

Target: T1, RsmA (E. coli, UniProt P06992 1-273)
T1 sequence (looked up): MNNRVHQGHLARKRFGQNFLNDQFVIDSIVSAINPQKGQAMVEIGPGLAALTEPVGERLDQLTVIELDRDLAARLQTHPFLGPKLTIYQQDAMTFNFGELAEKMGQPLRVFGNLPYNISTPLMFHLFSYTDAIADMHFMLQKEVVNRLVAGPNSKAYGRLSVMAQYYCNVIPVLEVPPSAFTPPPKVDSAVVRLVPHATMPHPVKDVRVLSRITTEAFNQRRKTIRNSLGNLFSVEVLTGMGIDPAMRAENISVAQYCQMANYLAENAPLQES
Experiment: NMR titration

Ka: < 10000 M⁻¹
B1: RimP (natural protein)
chain: not shown
